Results taken from IntAct's records for PubMed 7759517.

B1: Dual specificity mitogen-activated protein kinase kinase 5 (Homo sapiens), Q13163 (parent)
chain: MLWLALGPFPAMENQVLVIRIKIPNSGAVDWTVHSGPQLLFRDVLDVIGQVLPEATTTAFEYEDEDGDRITVRSDEEMKAMLSYYYSTVMEQQVNGQLIEPLQIFPRACKPPGERNIHGLKVNTRAGPSQHSSPAVSDSLPSNSLKKSSAELKKILANGQMNEQDIRYRDTLGHGNGGTVYKAYHVPSGKILAVKVILLDITLELQKQIMSELEILYKCDSSYIIGFYGAFFVENRISICTEFMDGGSLDVYRKMPEHVLGRIAVAVVKGLTYLWSLKILHRDVKPSNMLVNTRGQVKLCDFGVSTQLVNSIAKTYVGTNAYMAPERISGEQYGIHSDVWSLGISFMELALGRFPYPQIQKNQGSLMPLQLLQCIVDEDSPVLPVGEFSEPFVHFITQCMRKQPKERPAPEELMGHPFIVQFNDGNAAVVSMWVCRALEERRSQQGPP

Variants of: B1
Details: with mk07_human MAPK7, Q13164
Sequence of mk07_human MAPK7, Q13164 (Q13164 whole entry, looked up): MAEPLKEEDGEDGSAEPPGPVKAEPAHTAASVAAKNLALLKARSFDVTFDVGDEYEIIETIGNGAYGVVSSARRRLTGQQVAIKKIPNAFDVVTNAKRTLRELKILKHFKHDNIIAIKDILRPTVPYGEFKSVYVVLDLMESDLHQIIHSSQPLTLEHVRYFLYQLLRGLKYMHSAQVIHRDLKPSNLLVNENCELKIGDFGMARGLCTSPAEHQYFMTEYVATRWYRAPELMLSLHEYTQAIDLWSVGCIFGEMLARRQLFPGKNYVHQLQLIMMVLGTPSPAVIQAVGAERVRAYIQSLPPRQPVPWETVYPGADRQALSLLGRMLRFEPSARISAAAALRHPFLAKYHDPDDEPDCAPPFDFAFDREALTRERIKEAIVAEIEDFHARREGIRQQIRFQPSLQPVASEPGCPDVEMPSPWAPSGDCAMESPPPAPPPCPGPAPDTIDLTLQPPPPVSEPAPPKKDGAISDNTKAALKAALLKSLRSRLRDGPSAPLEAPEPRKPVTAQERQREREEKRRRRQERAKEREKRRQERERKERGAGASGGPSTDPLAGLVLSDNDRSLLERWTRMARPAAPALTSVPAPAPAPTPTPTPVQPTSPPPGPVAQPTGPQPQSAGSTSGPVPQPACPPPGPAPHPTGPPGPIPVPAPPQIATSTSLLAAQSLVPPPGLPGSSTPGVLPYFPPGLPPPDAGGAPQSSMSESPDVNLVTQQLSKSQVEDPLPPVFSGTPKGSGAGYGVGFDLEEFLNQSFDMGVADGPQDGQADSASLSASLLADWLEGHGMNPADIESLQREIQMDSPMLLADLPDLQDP

**Q.** How did the “effect of a mutation on the interaction” value turn out when MLWLALGPFPAMENQVLVIRIKIPNSGAVDWTVHSGPQLLFRDVLDVIGQVLPEATTTAFEYEDEDGDRITVRSDEEMKAMLSYYYSTVMEQQVNGQLIEPLQIFPRACKPPGERNIHGLKVNTRAGPSQHSSPAVSDSLPSNSLKKSSAELKKILANGQMNEQDIRYRDTLGHGNGGTVYKAYHVPSGKILAVKVILLDITLELQKQIMSELEILYKCDSSYIIGFYGAFFVENRISICTEFMDGGSLDVYRKMPEHVLGRIAVAVVKGLTYLWSLKILHRDVKPSNMLVNTRGQVKLCDFGVSTQLVNAIAKAYVGTNAYMAPERISGEQYGIHSDVWSLGISFMELALGRFPYPQIQKNQGSLMPLQLLQCIVDEDSPVLPVGEFSEPFVHFITQCMRKQPKERPAPEELMGHPFIVQFNDGNAAVVSMWVCRALEERRSQQGPP [S311A;T315A] was run?
**A.** increasing interaction

Variants of: B1
Details: with mk07_human MAPK7, Q13164
Remark: another data set of the same source

**Q.** MLWLALGPFPAMENQVLVIRIKIPNSGAVDWTVHSGPQLLFRDVLDVIGQVLPEATTTAFEYEDEDGDRITVRSDEEMKAMLSYYYSTVMEQQVNGQLIEPLQIFPRACKPPGERNIHGLKVNTRAGPSQHSSPAVSDSLPSNSLKKSSAELKKILANGQMNEQDIRYRDTLGHGNGGTVYKAYHVPSGKILAVMVILLDITLELQKQIMSELEILYKCDSSYIIGFYGAFFVENRISICTEFMDGGSLDVYRKMPEHVLGRIAVAVVKGLTYLWSLKILHRDVKPSNMLVNTRGQVKLCDFGVSTQLVNSIAKTYVGTNAYMAPERISGEQYGIHSDVWSLGISFMELALGRFPYPQIQKNQGSLMPLQLLQCIVDEDSPVLPVGEFSEPFVHFITQCMRKQPKERPAPEELMGHPFIVQFNDGNAAVVSMWVCRALEERRSQQGPP [K195M] was tested. Which “effect of a mutation on the interaction” value did it give?
**A.** increasing interaction
